From the supplement of paper PMC10126150
± gives the standard deviation of the averaged measurements.

System: ATP
Assay: switch fluorescence ratio, 500 uM ATP over buffer (Cy3 cluster intensity, sum of 5 cycles each) (fold (ratio)); higher = stronger signal-on switching upon ATP binding; sequences stand for … in TCGTCGGCAGCGTCAGATGTGTATAAGAGACAGTTTTTTTTTTTTTTTTTTTTTTTTT…TC
Settings: aptamer strand: ATP DNA aptamer (quencher-CACCTGGGGGAGTATTGCGGAGGAAGG + anchor), 100 nM annealed; ATP concentration: 500 uM
In short: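 Per cluster, summed Cy3 intensity from the target cycles was divided by that from the buffer cycles to give the fluorescence ratio, then averaged per switch-domain sequence. Clusters outside 100-1000 RFU were excluded. The Cy3-labelled switching-strand clusters, on a modified Illumina MiSeq flow-cell, were annealed to 100 nM quencher-labelled ATP aptamer and imaged in selection buffer, then after 15 min with 500 uM ATP at 22 °C, for five cycles with NaOH stripping and re-annealing between them.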
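Note: ATP exposure 15 min at 22 °C before imaging.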

GATCAAGGGG
switch fluorescence ratio: 0.9939 ± 0.0078

GATCCAGGAG
switch fluorescence ratio: 1.11 ± 0.047

GATCCGAGGG
switch fluorescence ratio: 0.974 ± 0.018

GATCCGGCTT
switch fluorescence ratio: 1.04 ± 0.035

GATCCGGGC
switch fluorescence ratio: 1.05 ± 0.087

GATCCTAACG
switch fluorescence ratio: 1.04 ± 0.048

GATCCTTTAT
switch fluorescence ratio: 0.979 ± 0.02

GATCGATTTG
switch fluorescence ratio: 0.998 ± 0.023

GATCGCTTGG
switch fluorescence ratio: 1.04 ± 0.036

GATCGGAATA
switch fluorescence ratio: 1.87 ± 0.091

GATCGGATTA
switch fluorescence ratio: 0.999 ± 0.024

GATCGGCTTG
switch fluorescence ratio: 0.984 ± 0.013

GATCGGGGCA
switch fluorescence ratio: 0.97679 ± 0.00094

GATCGGGGGC
switch fluorescence ratio: 1.06 ± 0.14

GATCGGTACG
switch fluorescence ratio: 1 ± 0.011

GATCGTACAG
switch fluorescence ratio: 1.04 ± 0.018

GATCTACAGC
switch fluorescence ratio: 1.02 ± 0.024

GATCTACGGC
switch fluorescence ratio: 1.07 ± 0.024

GATCTGTGGA
switch fluorescence ratio: 0.95 ± 0.052

GATCTTAGGT
switch fluorescence ratio: 0.996 ± 0.041

GATGAAATGG
switch fluorescence ratio: 1.02 ± 0.013

GATGAACGTC
switch fluorescence ratio: 1.11 ± 0.19

GATGAAGCGA
switch fluorescence ratio: 1.19 ± 0.02

GATGAAGGGA
switch fluorescence ratio: 0.979 ± 0.013

GATGAATGGG
switch fluorescence ratio: 0.996 ± 0.014

GATGACGAAT
switch fluorescence ratio: 1.023 ± 0.0047

GATGACGTCC
switch fluorescence ratio: 1.04 ± 0.069

GATGACTTGT
switch fluorescence ratio: 0.972 ± 0.011

GATGAGAGGT
switch fluorescence ratio: 0.999 ± 0.015

GATGAGGAAG
switch fluorescence ratio: 1.01 ± 0.06

GATGAGGGTA
switch fluorescence ratio: 0.976 ± 0.034

GATGAGGGTG
switch fluorescence ratio: 1.06 ± 0.015

GATGAGTTG
switch fluorescence ratio: 1.01 ± 0.012

GATGATAGCG
switch fluorescence ratio: 0.999 ± 0.025

GATGATGGGC
switch fluorescence ratio: 0.996 ± 0.035

GATGCACCGA
switch fluorescence ratio: 1.06 ± 0.036

GATGCATGGC
switch fluorescence ratio: 1.12 ± 0.035

GATGCTACTG
switch fluorescence ratio: 1.04 ± 0.016

GATGCTGTGC
switch fluorescence ratio: 1.0328 ± 0.00033

GATGCTTCTT
switch fluorescence ratio: 0.985 ± 0.019

GATGCTTGTG
switch fluorescence ratio: 0.978 ± 0.011

GATGGAAAGG
switch fluorescence ratio: 0.998 ± 0.029

GATGGAAGGG
switch fluorescence ratio: 0.974 ± 0.023

GATGGAGGTG
switch fluorescence ratio: 0.997 ± 0.011

GATGGATAGG
switch fluorescence ratio: 0.9804 ± 0.0043

GATGGATGGG
switch fluorescence ratio: 1.019 ± 0.0069

GATGGATTAG
switch fluorescence ratio: 0.982 ± 0.015

GATGGCGGAG
switch fluorescence ratio: 1.03 ± 0.042

GATGGCGTGG
switch fluorescence ratio: 0.964 ± 0.038

GATGGCTACG
switch fluorescence ratio: 1.01 ± 0.024

GATGGGACAA
switch fluorescence ratio: 1.008 ± 0.0027

GATGGGGCTG
switch fluorescence ratio: 1.02 ± 0.062

GATGGGGGAT
switch fluorescence ratio: 1.01 ± 0.028

GATGGGGGGG
switch fluorescence ratio: 1 ± 0.028

GATGGGTTTT
switch fluorescence ratio: 0.997 ± 0.062

GATGGTAGTT
switch fluorescence ratio: 1.012 ± 0.0024

GATGGTCGTT
switch fluorescence ratio: 1.011 ± 0.0079

GATGGTGGGG
switch fluorescence ratio: 0.977 ± 0.035

GATGGTGGTT
switch fluorescence ratio: 1.02 ± 0.044

GATGGTTTCC
switch fluorescence ratio: 1.02 ± 0.0017

GATGGTTTGT
switch fluorescence ratio: 0.988 ± 0.039

GATGTAACTT
switch fluorescence ratio: 1.012 ± 0.0061

GATGTACCCC
switch fluorescence ratio: 1.114 ± 0.0023

GATGTAGCTT
switch fluorescence ratio: 1.029 ± 0.0033

GATGTAGTAT
switch fluorescence ratio: 0.982 ± 0.011

GATGTAGTGG
switch fluorescence ratio: 1.029 ± 0.0055

GATGTCAGGG
switch fluorescence ratio: 1.05 ± 0.021

GATGTCATTT
switch fluorescence ratio: 0.987 ± 0.024

GATGTCCCCA
switch fluorescence ratio: 0.959 ± 0.013

GATGTCTAGC
switch fluorescence ratio: 0.9894 ± 0.0065

GATGTGGTAA
switch fluorescence ratio: 1.01 ± 0.012

GATGTGGTGA
switch fluorescence ratio: 0.9929 ± 0.0061

GATGTGTTGG
switch fluorescence ratio: 0.9595 ± 0.0048

GATGTTAAGA
switch fluorescence ratio: 0.998 ± 0.046

GATGTTAGTA
switch fluorescence ratio: 0.973 ± 0.018

GATGTTGAAT
switch fluorescence ratio: 0.998 ± 0.021

GATGTTGATG
switch fluorescence ratio: 0.976 ± 0.014

GATTAAGAGC
switch fluorescence ratio: 0.999 ± 0.044

GATTACTACC
switch fluorescence ratio: 1.21 ± 0.04

GATTAGGCGA
switch fluorescence ratio: 1.023 ± 0.0064

GATTAGTGTG
switch fluorescence ratio: 0.995 ± 0.05

GATTATAAGA
switch fluorescence ratio: 0.989 ± 0.033

GATTATAGAT
switch fluorescence ratio: 1 ± 0.015

GATTATCGTT
switch fluorescence ratio: 1.03 ± 0.027

GATTATGCGC
switch fluorescence ratio: 1.03 ± 0.037

GATTATGCTC
switch fluorescence ratio: 1.01 ± 0.015

GATTATGCTG
switch fluorescence ratio: 1.17 ± 0.06

GATTATGGCA
switch fluorescence ratio: 0.9752 ± 0.0066

GATTATTGCT
switch fluorescence ratio: 0.988 ± 0.037

GATTCAAAGG
switch fluorescence ratio: 0.9911 ± 0.004

GATTCACTAA
switch fluorescence ratio: 0.989 ± 0.054

GATTCAGACA
switch fluorescence ratio: 0.963 ± 0.015

GATTCAGCGC
switch fluorescence ratio: 0.99 ± 0.03

GATTCCATAT
switch fluorescence ratio: 1 ± 0.03

GATTCGCGGC
switch fluorescence ratio: 1.16 ± 0.02

GATTCGCTAA
switch fluorescence ratio: 1.12 ± 0.13

GATTCTGGTT
switch fluorescence ratio: 0.94 ± 0.029

GATTCTTGAG
switch fluorescence ratio: 1.01 ± 0.032

GATTGAAAGA
switch fluorescence ratio: 0.986 ± 0.026

GATTGAAAGC
switch fluorescence ratio: 0.962 ± 0.045

GATTGAAGGG
switch fluorescence ratio: 0.979 ± 0.032

GATTGACAGG
switch fluorescence ratio: 1.04 ± 0.03

GATTGACCAT
switch fluorescence ratio: 1.041 ± 0.0099

GATTGAGCGT
switch fluorescence ratio: 0.996 ± 0.017

GATTGATTGC
switch fluorescence ratio: 1 ± 0.033

GATTGATTGT
switch fluorescence ratio: 0.9867 ± 0.0061

GATTGCAGAT
switch fluorescence ratio: 1.02 ± 0.034

GATTGGAAAG
switch fluorescence ratio: 1.0069 ± 0.00042

GATTGGAGTC
switch fluorescence ratio: 1.008 ± 0.0045

GATTGGCCCG
switch fluorescence ratio: 1.11 ± 0.13

GATTGGGGAT
switch fluorescence ratio: 0.992 ± 0.02

GATTGGGGGA
switch fluorescence ratio: 0.984 ± 0.036

GATTGGGTCA
switch fluorescence ratio: 1 ± 0.012

GATTGGGTGG
switch fluorescence ratio: 1 ± 0.017

GATTGGGTTG
switch fluorescence ratio: 0.981 ± 0.045

GATTGGTGTT
switch fluorescence ratio: 0.956 ± 0.025

GATTGTAATC
switch fluorescence ratio: 0.99 ± 0.0063

GATTGTATGG
switch fluorescence ratio: 1.02 ± 0.025

GATTGTCCTT
switch fluorescence ratio: 0.9956 ± 0.0048

GATTGTGGAG
switch fluorescence ratio: 1.01 ± 0.018

GATTGTTTTT
switch fluorescence ratio: 0.997 ± 0.044

GATTTAACGA
switch fluorescence ratio: 0.985 ± 0.014

GATTTAAGAT
switch fluorescence ratio: 1.01 ± 0.029

GATTTAATGG
switch fluorescence ratio: 1 ± 0.021

GATTTAATTT
switch fluorescence ratio: 1.001 ± 0.0063

GATTTACCAG
switch fluorescence ratio: 1.03 ± 0.027

GATTTAGTTA
switch fluorescence ratio: 1.01 ± 0.027

GATTTATCGC
switch fluorescence ratio: 1 ± 0.046

GATTTATGAG
switch fluorescence ratio: 0.9668 ± 0.0067

GATTTATTTT
switch fluorescence ratio: 0.994 ± 0.017

GATTTCAAAT
switch fluorescence ratio: 1.02 ± 0.023

GATTTCATTT
switch fluorescence ratio: 1.01 ± 0.04

GATTTGAAGG
switch fluorescence ratio: 1.01 ± 0.035

GATTTGACG
switch fluorescence ratio: 1.04 ± 0.056

GATTTGATGT
switch fluorescence ratio: 1 ± 0.03

GATTTGATTG
switch fluorescence ratio: 1.002 ± 0.0033

GATTTGCTAG
switch fluorescence ratio: 0.997 ± 0.023

GATTTTCACT
switch fluorescence ratio: 0.9903 ± 0.0092

GATTTTCCTT
switch fluorescence ratio: 1.01 ± 0.027

GATTTTGAGC
switch fluorescence ratio: 0.9986 ± 0.0048

GATTTTGCAT
switch fluorescence ratio: 1 ± 0.028

GATTTTGGCT
switch fluorescence ratio: 0.9969 ± 0.0019

GATTTTTACT
switch fluorescence ratio: 1.02 ± 0.024

GATTTTTATA
switch fluorescence ratio: 0.969 ± 0.028

GATTTTTATG
switch fluorescence ratio: 0.977 ± 0.011

GATTTTTGAG
switch fluorescence ratio: 0.99 ± 0.017

GATTTTTGGA
switch fluorescence ratio: 0.968 ± 0.03

GATTTTTGGG
switch fluorescence ratio: 1.01 ± 0.047

GATTTTTGTT
switch fluorescence ratio: 1.01 ± 0.034

GATTTTTTGA
switch fluorescence ratio: 1.01 ± 0.011

GCAAAAAAAT
switch fluorescence ratio: 1.04 ± 0.025

GCAAAAATGT
switch fluorescence ratio: 1 ± 0.029

GCAAAAGGGG
switch fluorescence ratio: 0.977 ± 0.027

GCAAAGAGGG
switch fluorescence ratio: 1.04 ± 0.012

GCAAAGTCTG
switch fluorescence ratio: 0.984 ± 0.046

GCAAATAAGT
switch fluorescence ratio: 1.02 ± 0.038

GCAAATATTG
switch fluorescence ratio: 1.01 ± 0.018
